# Measured values: patent publication US7063946B2, “Methods, reagents, kits and apparatus for protein function analysis” (Meso Scale Technologies, LLC., priority 2001, dated 2006)
# Key:
# [1] = target: T1, c-Myc peptide [SEQ ID No. 4] (Homo sapiens, UniProt P01106); assay: Phosphopeptide binding assay, peptide-BSA coated IPR plate
# T1 construct: phosphothreonine (T58) and phosphoserine (S62) (chemical modification); purchased New England Peptide, Fitchburg Mass; host or cells: chemical synthesis
# Description: A phosphopeptide derived from the IkBa degradation motif (SEQ ID NO: 1) and a phosphopeptide derived from c-Myc (SEQ ID NO: 4) were chemically synthesized (New England Peptide, Fitchburg Mass.) with the following sequences respectively:
# To prepare IPR plates for use in the assay, approximately 2.4 pmol BSA, 1.2 pmole IκBα-24pp peptide-BSA conjugate or 1.2 pmole of Myc-p58Tp62S peptide-BSA conjugate in 2.5 μl were deposited on the carbon working electrode surface in a single well of a 96-well plate. At this stage, the plates were dried then used or stored under desiccated condition. A few hours prior to usage, the plates were rehydrated and blocked with 3% BSA, in PBS.
# Two βTRCP genes, βTRCP1 and βTRCP2, are present in the human genome on […], respectively. The coding sequence of these two genes shares over 90% identity and several full-length cDNAs of which are available as EST clones from Incyte (Palo Alto, Calif.) IMAGE #3491843 and 4237375. Also included were three other non specific EST clones as controls (Incyte, Palo alto, Calif.). […] These DNAs were used to produce the βTRCP protein and proteins encoded by the other DNAs as described in the Example 7. Proteins were transferred into wells of the peptide-coated and BSA-blocked IPR plates. […] The ECL signals were measured using an imaging plate reader (IPR).
# [2] = test system: pooled phosphopeptide:BSA conjugates (Pools A-D); assay: Coded multiplex phosphopeptide binding assay with pooled peptide:BSA conjugates on 4 spots; conditions: for ECL signal, spot A: Pool A, EGFR-pTyr1148, IkBa-24ppC, Myc-p58Tp62S; for ECL signal, spot B: Pool B, EGFR-pTyr992, EGFR-pTyr1148, Smad3C; for ECL signal, spot C: Pool C, EGFR-pTyr1068, IkBa-24ppC, Smad3C; for ECL signal, spot D: Pool D, EGFR-pTyr992, EGFR-pTyr1068, Myc-p58Tp62S
# Excerpt: To prepare the Multi-Spot IPR plates, in this example we made use of pools of the peptide:BSA conjugates to coat each of 4 spots per well in a 96 well plate. To achieve this we made the following pools; • Pool A; EGFR-pTyr1148, IkBa-24ppC, Myc-p58Tp62S. • Pool B; EGFR-pTyr992, EGFR-pTyr1148, Smad3C. • Pool C; EGFR-pTyr1068, IkBa-24ppC, Smad3C. • Pool D; EGFR-pTyr992, EGFR-pTyr1068, Myc-p58Tp62S.
# This combination of the various peptides results in any single peptide being present in two pools. Each of these four pools is then spotted on to a unique spot in a 4 spot array. In this way any single binding protein with specificity for only one of the peptides would bind to two spots; the identity of the two spots would allow the identification of the peptide involved in the binding reaction.
# Typically approximately 120 fmole of peptide:BSA conjugate in 0.25 μl was deposited on each spot of a 4-spot multi-array IPR plates using a BioDot Dispenser (Bio-Dot Inc., vIrvine Calif.). At this stage, the plates were dried then used or stored under desiccated condition. A few hours prior to usage, the plates were rehydrated and blocked with 3% BSA, in PBS.
# To test the system the following EST clones IMAGE # 3491843, 4237375, 4398016, 4419252, 3872466, 3907115 were obtained. These clones express the following genes βTRCP1, βTRCP2, Grb2, PLCγ, CBP and Shc1, respectively. […] These DNAs were used to produce proteins as described in the Materials and Methods. Proteins were transferred to a well of the 4 spot peptide-coated and BSA blocked ECL plates. The binding assay (using Sulfo-TAG labeled streptavidin as a detection agent) was carried our according to the procedures described in Example 11.
# [3] = target: T2, EGFR-pY1068 (SEQ ID NO: 7) (Homo sapiens, UniProt P00533); assay: Single-well 4-spot assay for multiple peptide-protein interactions; assay type: binding; conditions: 4-spot plate
# T2 construct: phosphotyrosine at Tyr1068 (chemical modification); purchased New England Peptide, Fitchburg Mass; host or cells: chemical synthesis
# Excerpt: (§1) Four phosphopeptides and their cognate binding proteins (Table 14) were selected for an integrated assay of multiple peptide-protein interaction in 4-spot Multi-Array plates. The IkBa-24pp peptide and its binding protein, βTRCP, are described in Example 10. […] These phosphotyrosine containing peptides are recognized by different adaptor or effecter proteins of the receptor tyrosine kinase signaling pathway.
# (§2) These four peptides were coupled to BSA carrier protein through cystine residue. After purification on PD-10 gel filtration columns, the peptide-BSA conjugates were then deposited on the assay domains of a 4-spot multi-array IPR plate (i.e., in one of the four exposed regions of working electrode defined by the dielectric layer) with an automated micro-dispensing system (Bio-Dot Dispenser, Bio-Dot, Irvine Calif.). […] These plates are dried then used or stored under desiccated conditions. A few hours prior to usage the plates were rehydrated and blocked with 3% BSA in PBS. […] The in vitro translated and biotin-labeled proteins were then assayed in the 4-spot multi-array IPR plates under conditions described in Example 10.
# [4] = target: T3, EGFR-pY1148 (SEQ ID NO: 9) (Homo sapiens, UniProt P00533); assay: as above; assay type: binding; conditions: 4-spot plate
# T3 construct: phosphotyrosine at Tyr1148 (chemical modification); purchased New England Peptide, Fitchburg Mass; host or cells: chemical synthesis
# Excerpt: as §1, §2
# T1 sequence (P01106 with tags, fused parts or gaps limits assumed): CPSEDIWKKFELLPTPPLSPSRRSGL
"Average ECL signal, c-Myc peptide [SEQ ID No. 4] [1]",Code (pattern of positive spots) [2],Peptide determined from code [2],"ECL signal, spot A [2]","ECL signal, spot B [2]","ECL signal, spot C [2]","ECL signal, spot D [2]","ECL signal, spot 3 EGFR-pY1068 [3]","ECL signal, spot 2 EGFR-pY1148 [4]",Molecule
896,"A, C",IkBa-24ppC,7791,105,8615,74,24,35,4237375: IMAGE clone protein: βTRCP2 (protein) MEPDSVIEDKTIELMCSVPRSLWLGCANLVESMCALSCLQSMPSVRCLQISNGTSSVIVSRKRPSEGNYQKEKDLCIKYFDQWSESDQVEFVEHLISRMCHYQHGHINSYLKPMLQRDFITALPEQGLDHIAENILSYLDARSLCAAELVCKEWQRVISEGMLWKKLIERMVRTDPLWKGLSERRGWDQYLFKNRPTDGPPNSFYRSLYPKIIQDIETIESNWRCGRHNLQRIQCRSENSKGVYCLQYDDEKIISGLRDNSIKIWDKTSLECLKVLTGHTGSVLCLQYDERVIVTGSSDSTVRVWDVNTGEVLNTLIHHNEAVLHLRFSNGLMVTCSKDRSIAVWDMASATDITLRRVLVGHRAAVNVVDFDDKYIVSASGDRTIKVWSTSTCEFVRTLNGHKRGIACLQYRDRLVVSGSSDNTIRLWDIECGACLRVLEGHEELVRCIRFDNKRIVSGAYDGKIKVWDLQAALDPRAPASTLCLRTLVEHSGRVFRLQFDEFQIISSSHDDTILIWDFLNVPPSAQNETRSPSRTYTYISR
–,"B, C, D",EGFR-pTyr992 & EGFR-pTyr1068,239,2783,1550,3388,1485,110,4419252: IMAGE clone protein: PLCγ (protein) MAGAASPCANGCGPGAPSDAEVLHLCRSLEVGTVMTLFYSKKSQRPERKTFQVKLETRQITWSRGADKIEGAIDIREIKEIRPGKTSRDFDRYQEDPAFRPDQSHCFVILYGMEFRLKTLSLQATSEDEVNMWIKGLTWLMEDTLQAPTPLQIERWLRKQFYSVDRNREDRISAKDLKNMLSQVNYRVPNMRFLRERLTDLEQRSGDITYGQFAQLYRSLMYSAQKTMDLPFLEASTLRAGERPELCRVSLPEFQQFLLDYQGELWAVDRLQVQEFMLSFLRDPLREIEEPYFFLDEFVTFLFSKENSVWNSQLDAVCPDTMNNPLSHYWISSSHNTYLTGDQFSSESSLEAYARCLRMGCRCIELDCWDGPDGMPVIYHGHTLTTKIKFSDVLHTIKEHAFVASEYPVILSIEDHCSIAQQRNMAQYFKKVLGDTLLTKPVEISADGLPSPNQLKRKILIKHKKLAEGSAYEEVPTSMMYSENDISNSIKNGILYLEDPVNHEWYPHYFVLTSSKIYYSEETSSDQGNEDEEEPKEVSSSTELHSNEKWFHGKLGAGRDGRHIAERLLTEYCIETGAPDGSFLVRESETFVGDYTLSFWRNGKVQHCRIHSRQDAGTPKFFLTDNLVFDSLYDLITHYQQVPLRCNEFEMRLSEPVPQTNAHESKEWYHASLTRAQAEHMLMRVPRDGAFLVRKRNEPNSYAISFRAEGKIKHCRVQQEGQTVMLGNSEFDSLVDLISYYEKHPLYRKMKLRYPINEEALEKIGTAEPDYGALYEGRNPGFYVEANPMPTFKCAVKALFDYKAQREDELTFIKSAIIQNVEKQEGGWWRGDYGGKKQLWFPSNYVEEMVNPVALEPEREHLDENSPLGDLLRGVLDVPACQIAIRPEGKNNRLFVFSISMASVAHWSLDVAADSQEELQDWVKKIREVAQTADARLTEGKIMERRKKIALELSELVVYCRPVPFDEEKIGTERACYRDMSSFPETKAEKYVNKAKGKKFLQYNRLQLSRIYPKGQRLDSSNYDPLPMWICGSQLVALNFQTPDKPMQMNQALFMTGRHCGYVLQPSTMRDEAFDPFDKSSLRGLEPCAISIEVLGARHLPKNGRGIVCPFVEIEVAGAEYDSTKQKTEFVVDNGLNPVWPAKPFHFQISNPEFAFLRFVVYEEDMFSDQNFLAQATFPVKGLKTGYRAVPLKNNYSEDLELASLLIKIDIFPAKENGDLSPFSGTSLRERGSDASGQLFHGRAREGSFESRYQQPFEDFRISQEHLADHFDSRERRAPRRTRVNGDNRL
